Measurements from patent US20170306013A1 (KYMAB, published 2017).
Substitutions are numbered along the chain they refer to.

T1: KP1.2 peptide of the D2E2 loop of the Nav1.7 channel (human, not fully specified)
T1 construct: also called human NAV1.7 peptide
T1 peptide: H-VELFLADVEGC-NH2

B1: 30G01 (antibody, V domains shown)
VH: QVQLQESGPGLVKPSGTLSLTCAVSGGSISSSNWWSWVRQPPGKGLEWIGEIYHSGNTNYNPSLKSRVTISVDKSKNQFSLKLSSVTAADTAVYYCVRGYYYDSGTSWGYYYGMDVWGQGTTVTVSS
VL: DIQMTQSPSSLSASVGDRVTITCRASQGISNYLAWFQQRPGRAPKSLIYAASSLQRGVPSKFSGSGSGTDFTLTISSLQPEDFATYYCQQYNSYPITFGQGTRLEIK
B2: 22G09 (antibody, V domains shown)
VH: QVQLVQSGAEVRKPGASVKVSCKASGYTFTDYAIHWVRQAPGQRLEWMGWIIVGNGKTRYSQKFQGRVTITWETSATTAYMDLSSLRSEDTAVYYCARGFTMVRGAPYYDGMDVWGQGTTVTVSS
VL: DIVMTQSPLSLPVTPGEPASISCRSSQSLLYTTGYNYLDWYLQKPGLSPQLLIYLGSYRASGVPDRFTGSGSGTDFTLKISRVEAEDVGVYYCMQALQAPTFGGGTKLEIK
notes: Detected with anti-human IgG
B3: 32A07 (antibody, V domains shown)
VH: B2 VH with A9P, K13N, K19R, I34L, S61A, T77S, Y80F, M112L, V123I
VL: DIVMTQSPLSLPVTLGQPASISCRSSQSLIYSDGNTYLNWFQQRPGQSPRRLIYKVSNRDSGVPDRFSGSGSGTDFTLKISRVEAEDVGVYYCLQGTLWPITFGQGTRLEIK
B4: 28C11 (antibody, V domains shown)
VH: B2 VH with S61A, T77S, M112L
VL: B2 VL with Y31F, T32S, Y58N, T68S, A99T, L108V
notes: Detected with anti-human IgG
B5: 28B08 (antibody, V domains shown)
VH: B2 VH with I34L, S61A, T77S, Y80F, M81V, S84N, M112L
VL: B2 VL with P12S, T32S, Y58N, T68S, V90F, L108V
notes: Detected with anti-human IgG; also called 28608
B6: 32E01 (antibody, V domains shown)
VH: B2 VH with T77S
VL: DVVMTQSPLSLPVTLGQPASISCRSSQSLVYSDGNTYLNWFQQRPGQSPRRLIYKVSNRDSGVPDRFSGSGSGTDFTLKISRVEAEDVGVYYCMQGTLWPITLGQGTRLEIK
B7: 35E11 (antibody, V domains shown)
VH: B2 VH with S61A, F64L, T77S, S84T, M112L
VL: B2 VL with T32S, Q50H, Y58N, T68S, A99T, L108V
B8: 32B04 (antibody, V domains shown)
VH: B2 VH with L4F, V68L
VL: B2 VL
notes: Detected with anti-human IgG; also called 32604
B9: 32D04 (antibody, V domains shown)
VH: B2 VH with A9P, K13N, K19R, I34L, S61A, T77S, Y80F, M112L, V123I
VL: B2 VL with T14S, T32S, Y58I, T68S, K79S, V90I, A99T, L108V
notes: Detected with anti-human IgG
B10: 35A06 (antibody, V domains shown)
VH: B2 VH with I34L, S61A, T77S, Y80F, M112L
VL: B2 VL with T32S, Y58N, T68S, A99T, L108V
notes: Detected with anti-human IgG
B11: 25A01 (antibody, V domains shown)
VH: QVQLVQSEAEVKKPGASVKVSCKASGYIFTTFGLSWVRQAPGQGLEWMGRITTNNGNTIYERRFQGRVTMTIDTSTTTAYMEMRSLTSDDTAVYYCARDGAPQDHWGQGTLVTVSS
VL: DIQMTQSPSSLSVSVGDRVIITCRASQDIRNSLAWFQQKPGKAPKSLIFAASSLQSGVPSKFRGSGFGTDFTLTITSLQPEDFATYYCQQYSSYPLTFGGGTKVEIK
notes: Detected with anti-human IgG
B12: 25F08 (antibody, V domains shown)
VH: QVQLVQSGPEVKKPGASVKVSCQASGYTFTTYGINWVRQAPGQGLEWMGRISAYNGNTNYAQKFQGRVTMTTDTSTRTAYMEMSNLISDDTAVYYCARDGAPQDHWGQGTLITVSS
VL: B11 VL with V19I, I20T, R30S, R63S, F67S, T72N, L73F, T76S, S92N, Y94F
notes: Detected with anti-human IgG
B13: 27A03 (antibody, V domains shown)
VH: EVQLVESGGGLVKPGGSLRLSCAASGFTFSTYSMNWVRQAPGKGLEWVSSISRSSSYIYYADSVKGRFTISRDNAKNSLSLQMNSLRAEDTAVYYCARGAAAGTDYWGQGTLVTVSS
VL: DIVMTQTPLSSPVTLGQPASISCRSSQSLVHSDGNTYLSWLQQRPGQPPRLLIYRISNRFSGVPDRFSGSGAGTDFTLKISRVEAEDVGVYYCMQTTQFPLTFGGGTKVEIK
B14: 35A10 (antibody, V domains shown)
VH: B13 VH
VL: B3 VL
B15: 25C01 (antibody, V domains shown)
VH: EVHLVESGGGLVQPGGSLRLSCSASRFTFSTSAMTWVRQAPGKGLEWVSVISASGTTTYYGDSVKGRFTISRDNSKNTLHLQMNSLRAEDTAVYYCAKGGLAVPGPNYWGQGTLVTVSS
VL: DVVMTQSPLSLPVTLGQPASISCRSSQSLVFSDGNTYLTWFQQRPGQSPRRLIYKVSDRDSGVPDRFSGSGSGTDFTLQISRVEAEDVGLYYCMQGSHWPLTFGGGTKVEIK
notes: Detected with anti-human IgG

Target: T1, KP1.2 peptide of the D2E2 loop of the …
Assay: DELFIA: KP1.2 peptide on streptavidin plate, purified antibody undiluted, Eu-labelled anti-human IgG, time-resolved fluorescence at 615 nm
Procedure: Four mice were immunised substantially as detailed in Table 6. The immunisations of Boost 6 each used 3 μg of KP1.2-KLH and 3 μg KP5.1-KLH, adjuvanted with IFA, CpG and Alum as set out in Table 6. A seventh booster immunisation was added, which consisted of 2 μg of KP1.2-KLH and 2 μg KP5.1-KLH, adjuvanted with IFA, CpG and Alum as set out in Table 6. Antibodies were isolated from these mice. 17 antibodies were identified using B-cell cloning technique as described above with labelled KP1.2 peptide (SEQ ID No:10). These 17 antibodies were further tested for binding to human NAV1.7 peptide using a DELFIA assay.
Streptavidin Even Coat 96 well plates (R&D Systems) were coated with 50 μL of 4 μg/ml KP1.2 peptide (SEQ ID No:10, synthesised by Mimotopes) diluted in 1×PBS (Sigma) for 1 hr at room temperature (RT). Plates were then washed 3× with 1×PBS+0.1% tween (200 μL/well). Plates were blocked with 200 μL PBS+1% BSA (Sigma) for 1 hr at RT. Plates were then washed again 3× with 1×PBS+0.1% tween (Sigma) (200 μL/well). Purified antibodies were then added non-diluted to washed plate and incubated for 1 hr at RT (50 μL/well). Plates were then washed 3× with 1×PBS+0.1% tween (200 μL/well). 50 μL/well of Dissociation-Enhanced Lanthanide Fluorescent Immunoassay (DELFIA) Europium-labelled Anti-Human IgG antibody (Perkin Elmer) diluted 1:500 in DELFIA assay buffer (Perkin Elmer) for 1 hr at RT. Plates were then washed 3× with DELFIA wash buffer (Perkin Elmer) (200 μL/well). 50 μL/well of DELFIA Enhancement Solution (Perkin Elmer, warmed to RT before use) was added to each well and incubated for 5 min at RT on shaker (Heidolph Titramax). […] Values were plotted using Prism (Graph Pad Prism).

Binder	binding result
B1	no binding (tested: undiluted, concentration not given)
B2	binds
B3	no binding (tested: undiluted, concentration not given)
B4	binds
B5	binds
B6	no binding (tested: undiluted, concentration not given)
B7	binds
B8	binds
B9	binds
B10	binds
B11	binds
B12	binds
B13	no binding (tested: undiluted, concentration not given)
B14	no binding (tested: undiluted, concentration not given)
B15	binds
